# Laboratory results published in the RNAGym collection of RNA variant scans (doi:10.1073/pnas.2313332121).
# B1: TPR t1 (parent)
# chain: GACCAAUCUGCCCUCAGAGCUCGAGAACAUCUUCGGAUGCAGAGGAGGCAGGCUUCGGUGGCGCGAUAGCGCCAACGUCCUCAACCUCCAAUGCAUCCCACCACAUGAUGAUGCCUGAAGAGCCUUGGUUUUUUG
# Variants of: B1
# Assay: polymerase ribozyme fitness, log enrichment relative to wild type (log ratio); higher = more active; in vitro selection for triplet polymerase activity
# Summary of the method: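 To select mutant libraries of each subunit of a heterodimeric triplet polymerase ribozyme, built by PCR and transcribed, each was annealed with a biotinylated primer, partner subunit and triplets, then incubated frozen at −7 °C. Extended constructs were gel-excised, captured on streptavidin beads and amplified by RT-PCR, in one round carried out in triplicate. Illumina sequencing of input and output libraries kept genotypes with ≥10 input reads and ≥1 read per output. Fitness is the base-2 logarithm of genotype enrichment relative to wild-type enrichment, from inverse-variance-weighted replicate averages.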
row,Variant,polymerase ribozyme fitness (log ratio)
1,A37U C72U A75U U78G C124A,1.33
2,A37U C72U A83G C86U,0.0963
3,A37U C73A,-0.559
4,A37U C80G,-5.42
5,A37U C82G,-0.955
6,A37U C86A,-0.797
7,A37U C86U A105G A121C U132C,-1.31
8,A37U C89A A95U C123A,-3
9,A37U C97G U112C,-4.07
10,A37U C97U,-2.15
11,A37U C114A,-0.828
12,A37U C115A,-0.816
13,A37U C115U,-0.707
14,A37U G39U C72U U125G,-3.21
15,A37U G44A A83C G120C U130G,-1.38
16,A37U G44A G52U C79A G113U G120U,-5.01
17,A37U G44C A100G C104U C115A,-5.44
18,A37U G47U C73U C101G C114U U126G,-7.11
19,A37U G48A C97U G110U U125C,-6.59
20,A37U G48U G60A C82G A121U,1.39
21,A37U G48U U55A,-1.56
22,A37U G51C C88A,-5.1
23,A37U G52C G120C,0.23
24,A37U G52U,-1.37

row,Variant,polymerase ribozyme fitness (log ratio)
1,A37U G57A A66C,-4.07
2,A37U G57A C89G,-3.91
3,A37U G57C C85U U125A,-1.95
4,A37U G58A A100C C114U U133G,-4.99
5,A37U G60A G93C U112C C115G G122U U130A,-6.13
6,A37U G61C,-1.86
7,A37U G61U,-0.28
8,A37U G63C A68U U78A U106A,-5.67
9,A37U G63C A95C,-1.93
10,A37U G63C C104U U116C,-1.47
11,A37U G69C,-1.75
12,A37U G69C C89U,-2.29
13,A37U G71A,-1.12
14,A37U G77U,-0.679
15,A37U G93U,-1.86
16,A37U G120C,-0.129
17,A37U U54A C123U C124G,1.44
18,A37U U59C C70U,-1.46
19,A37U U59G C124G,1.68
20,A37U U81A C101A G110U,-5.35
21,A37U U106C A119G,0.31
22,A37U U112A U125C,1.04
23,A37U U125A,-1.35
24,A37U U131C,-0.648

row,Variant,polymerase ribozyme fitness (log ratio)
1,U38A A41C C72U G127U,-4.53
2,U38A A41U G44U G113A,-5.6
3,U38A A43U C53U U112C G135C,-0.362
4,U38A C49U C88U,-1.59
5,U38A C73U C114A A121U,-1.65
6,U38A C86G A118U,-1.76
7,U38A C101A A119U A121U G122U,-2.88
8,U38A G39U G61U C89U A111C,-3.54
9,U38A G42A,-2.86
10,U38A G42U G63C C79U,-3.1
11,U38A G44U G52U C72G,-4.73
12,U38A G45U G57U,-2.52
13,U38A G48C G63C C85U G110A,-5.19
14,U38A G48U G110A,-3.21
15,U38A G58C C115A,-1.1
16,U38A G69A,-4.51
17,U38A G113C,-2.81
18,U38A U54G,-0.848
19,U38A U132C,-0.329
20,U38A U133A,-0.815
21,U38C A43G C73U G93A,-4.56
22,U38C A50U,-0.941
23,U38C A90C,-1.49
24,U38C C53U U116A A121G,0.589

row,Variant,polymerase ribozyme fitness (log ratio)
1,U38C C56U A84G,-1.53
2,U38C G42A A118U G122A,-3.31
3,U38C G42U C62G,-5.61
4,U38C G45A G113C U125C,-3.38
5,U38C G47U G61C A95C,-3.89
6,U38C G57A G69U U96A,-3.58
7,U38C G57U G117C,-5.11
8,U38C U109C,-4.71
9,U38G A41U C53G C62A G113A A119C,-5.91
10,U38G A43G,-2.91
11,U38G A43U G48U C88G,-5.48
12,U38G A43U U87C,-2.42
13,U38G A46U G61A U87A,-0.463
14,U38G C49A U54C G69U C104A,-0.856
15,U38G C49G,-2.14
16,U38G C64U A66C A90U A91C,-5.32
17,U38G C64U C80G U131C,-6.8
18,U38G C72U C104U,-1.14
19,U38G C82U,-0.857
20,U38G C89A U96A C114G,-5.44
21,U38G C115G,-3.06
22,U38G G61U U116C,-1.78
23,U38G G69C U112C,-1.03
24,U38G G69U,-0.236

row,Variant,polymerase ribozyme fitness (log ratio)
1,U38G G128C,-2.66
2,U38G U54G C64U,-4.46
3,U38G U116C,-2.06
4,G39A A43U C72U C73G C115G U126C,-5.51
5,G39A A46U,-1.28
6,G39A A46U U78A U126C,-3.53
7,G39A A46U U106A,-2.02
8,G39A A66C C86G,-2.29
9,G39A A83U U106A C114U,-4.87
10,G39A A111C,-0.291
11,G39A C49A,-0.508
12,G39A C49A C98A U112C,-3.94
13,G39A C49G C62G A90C G113A,-6.39
14,G39A C56U,-0.755
15,G39A C62G,-2.59
16,G39A C62U,-0.84
17,G39A C64U A90G G135U,-1.27
18,G39A C72U U78C C99U G120A U126C,-2.95
19,G39A C73A G93U,-2.29
20,G39A C73U U106A U109C G113A G117A,-5.45
21,G39A C80A C98U U133A,-6.34
22,G39A C88A,-1.32
23,G39A C94U,-0.565
24,G39A C102U A118G,-2.73

row,Variant,polymerase ribozyme fitness (log ratio)
1,G39A C104A,-2.08
2,G39A C104U,-0.931
3,G39A C123A,-0.277
4,G39A C124U,1.26
5,G39A G44C,-1.34
6,G39A G44U C82A A95C C115G,-3.83
7,G39A G45C,-2.32
8,G39A G45C G60U G69U C82U,-5.66
9,G39A G48A C56G G69U A105C,-2.52
10,G39A G48C,-1.23
11,G39A G48U G71U U116A U129A,-5.41
12,G39A G51U,-3.49
13,G39A G51U U129G,-5.53
14,G39A G61A,-0.128
15,G39A G71C,-2.63
16,G39A G93A U112G C123A,-3.6
17,G39A G110U,-2.32
18,G39A G128A,-2.58
19,G39A G135C,-0.0346
20,G39A U54A,-0.685
21,G39A U78C,-1.06
22,G39A U129C,-0.434
23,G39C A43C G69U C82G U96C,-3.31
24,G39C C40A,-3.01

row,Variant,polymerase ribozyme fitness (log ratio)
1,G39C C49U,-1.61
2,G39C C56G A111C G128A,-3.6
3,G39C C72U,-1.18
4,G39C C86U,-2.09
5,G39C C88U G135U,-2.39
6,G39C C97A,-5.8
7,G39C C98A,-5.08
8,G39C C101A,-1.69
9,G39C C115U G120C,-1.04
10,G39C G45A,-0.954
11,G39C G48A C49U C89A,-4.19
12,G39C G71U,-0.983
13,G39C U54A A74G,-0.531
14,G39C U54G C70A,-3.74
15,G39C U55A C56A G63U A121U,-4.47
16,G39C U78A,-0.87
17,G39C U109A G110U,-3.37
18,G39U A43C C62U G127A,-4.5
19,G39U A50U,-1.79
20,G39U A50U G60U G61A C79A,-3.64
21,G39U A68G C70U A121U,-2.23
22,G39U A68G C123U U133A,-2.96
23,G39U A74G G110C A111G,-5.64
